Values quoted from earlier work, collected in publication PMC4799752.

Target: transferrin receptor 2 (Homo sapiens) (UniProt Q9UP52)
Chain of UniProt Q9UP52 (Q9UP52 whole entry): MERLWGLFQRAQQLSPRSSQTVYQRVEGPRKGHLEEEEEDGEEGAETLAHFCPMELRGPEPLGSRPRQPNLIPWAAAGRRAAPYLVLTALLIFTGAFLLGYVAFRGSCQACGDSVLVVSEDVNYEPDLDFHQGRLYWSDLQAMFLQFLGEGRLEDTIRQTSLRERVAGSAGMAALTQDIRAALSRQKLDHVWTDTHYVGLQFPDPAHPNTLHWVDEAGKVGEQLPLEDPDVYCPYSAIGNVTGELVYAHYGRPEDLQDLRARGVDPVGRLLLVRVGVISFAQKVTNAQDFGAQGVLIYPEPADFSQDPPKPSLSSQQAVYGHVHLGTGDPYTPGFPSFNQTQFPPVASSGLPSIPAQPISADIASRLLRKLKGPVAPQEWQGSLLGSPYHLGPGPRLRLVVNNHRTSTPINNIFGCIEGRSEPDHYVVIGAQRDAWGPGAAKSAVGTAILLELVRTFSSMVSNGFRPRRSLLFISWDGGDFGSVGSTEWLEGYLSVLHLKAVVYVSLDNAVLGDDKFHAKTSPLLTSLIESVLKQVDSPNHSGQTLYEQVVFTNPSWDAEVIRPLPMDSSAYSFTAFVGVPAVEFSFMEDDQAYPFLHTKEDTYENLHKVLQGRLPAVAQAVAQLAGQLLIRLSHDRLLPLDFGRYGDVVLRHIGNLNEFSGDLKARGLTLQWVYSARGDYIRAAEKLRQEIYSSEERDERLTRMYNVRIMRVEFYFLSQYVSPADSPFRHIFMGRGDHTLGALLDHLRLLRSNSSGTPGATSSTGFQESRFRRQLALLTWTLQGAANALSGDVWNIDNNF

Chain of transferrin (P02787 20-698): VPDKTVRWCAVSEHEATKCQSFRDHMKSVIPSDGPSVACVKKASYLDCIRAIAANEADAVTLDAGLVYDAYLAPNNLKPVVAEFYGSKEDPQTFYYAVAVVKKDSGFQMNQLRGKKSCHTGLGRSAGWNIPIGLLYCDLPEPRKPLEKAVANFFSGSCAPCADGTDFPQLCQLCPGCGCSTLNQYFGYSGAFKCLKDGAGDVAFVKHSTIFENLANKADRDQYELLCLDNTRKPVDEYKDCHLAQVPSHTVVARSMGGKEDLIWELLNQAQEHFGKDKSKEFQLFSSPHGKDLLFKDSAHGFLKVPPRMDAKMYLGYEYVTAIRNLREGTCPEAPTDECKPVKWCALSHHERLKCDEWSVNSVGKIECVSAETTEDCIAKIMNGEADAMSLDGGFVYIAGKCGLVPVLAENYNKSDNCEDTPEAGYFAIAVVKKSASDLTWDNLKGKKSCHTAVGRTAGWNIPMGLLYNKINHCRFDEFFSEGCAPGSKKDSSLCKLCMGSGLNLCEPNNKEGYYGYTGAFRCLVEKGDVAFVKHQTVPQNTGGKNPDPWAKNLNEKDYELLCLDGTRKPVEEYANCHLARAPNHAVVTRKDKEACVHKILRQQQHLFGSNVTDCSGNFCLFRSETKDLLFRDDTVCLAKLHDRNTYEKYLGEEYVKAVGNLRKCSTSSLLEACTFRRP

transferrin (from UniProt P02787)
Kd: 30 nM
